Measured values reported in article PMC2731490 (Nature, 2009).

Columns and labels:
[1] = molecular target: T1, pol V Mut (UmuD′2C–RecA), wild-type RecA (Escherichia coli, UniProt P0A7G6); assay: hairpin primer/template extension, […]-labelled DNA; type: biochemical; conditions: nucleotide added after activation; RecA* absent; hydrolysis not needed
T1 sequence (P0A7G6 2-353): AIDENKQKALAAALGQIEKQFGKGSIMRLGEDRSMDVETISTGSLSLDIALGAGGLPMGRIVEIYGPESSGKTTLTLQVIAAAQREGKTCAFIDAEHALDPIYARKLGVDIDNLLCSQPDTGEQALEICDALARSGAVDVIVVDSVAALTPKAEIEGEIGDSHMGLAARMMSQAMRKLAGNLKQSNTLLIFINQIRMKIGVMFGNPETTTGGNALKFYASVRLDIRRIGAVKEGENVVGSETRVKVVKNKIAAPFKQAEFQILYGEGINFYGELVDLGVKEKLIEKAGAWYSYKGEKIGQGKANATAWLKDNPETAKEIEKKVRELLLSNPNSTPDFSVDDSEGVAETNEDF
T1 sequence (P04152 1-422 partner): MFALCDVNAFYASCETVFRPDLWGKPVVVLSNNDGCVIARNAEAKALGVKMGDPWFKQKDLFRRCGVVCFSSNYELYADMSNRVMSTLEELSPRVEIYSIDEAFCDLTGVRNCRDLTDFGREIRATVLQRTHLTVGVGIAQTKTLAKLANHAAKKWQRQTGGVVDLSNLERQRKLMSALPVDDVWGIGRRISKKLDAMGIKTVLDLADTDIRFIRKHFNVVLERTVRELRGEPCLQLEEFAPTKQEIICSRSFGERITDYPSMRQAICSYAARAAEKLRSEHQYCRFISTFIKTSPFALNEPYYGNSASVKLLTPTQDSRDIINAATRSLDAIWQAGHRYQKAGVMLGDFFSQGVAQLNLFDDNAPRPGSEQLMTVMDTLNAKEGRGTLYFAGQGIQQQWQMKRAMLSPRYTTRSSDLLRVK
T1 sequence (P0AG11 25-139 partner limits assumed): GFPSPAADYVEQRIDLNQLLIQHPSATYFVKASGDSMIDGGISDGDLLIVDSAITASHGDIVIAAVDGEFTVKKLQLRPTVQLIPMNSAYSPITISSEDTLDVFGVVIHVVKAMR

[2] = molecular target: T2, DNA polymerase V (UmuD′2C) (E. coli, UniProt P04152 1-422; P0AG11 25-139)
T2 sequence (looked up) 1: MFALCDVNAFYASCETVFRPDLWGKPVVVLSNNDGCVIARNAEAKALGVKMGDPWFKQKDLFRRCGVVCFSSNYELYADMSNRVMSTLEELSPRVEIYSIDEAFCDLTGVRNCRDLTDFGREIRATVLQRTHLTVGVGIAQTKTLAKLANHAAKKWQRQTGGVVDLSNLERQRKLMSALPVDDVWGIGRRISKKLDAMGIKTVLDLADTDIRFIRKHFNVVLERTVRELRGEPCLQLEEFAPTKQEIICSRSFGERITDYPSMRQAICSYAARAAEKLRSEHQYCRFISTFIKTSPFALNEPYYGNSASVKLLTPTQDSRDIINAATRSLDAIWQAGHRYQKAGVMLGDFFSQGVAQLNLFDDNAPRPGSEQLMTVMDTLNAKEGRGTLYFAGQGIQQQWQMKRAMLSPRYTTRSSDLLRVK
T2 sequence (looked up) 2: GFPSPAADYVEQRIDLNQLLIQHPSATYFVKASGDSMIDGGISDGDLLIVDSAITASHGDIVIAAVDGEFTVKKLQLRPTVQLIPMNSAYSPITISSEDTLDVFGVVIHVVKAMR

UmuC = molecular target: T3, UmuC (E. coli, UniProt P04152 1-422); assay: SEC-MALS
T3 sequence (looked up): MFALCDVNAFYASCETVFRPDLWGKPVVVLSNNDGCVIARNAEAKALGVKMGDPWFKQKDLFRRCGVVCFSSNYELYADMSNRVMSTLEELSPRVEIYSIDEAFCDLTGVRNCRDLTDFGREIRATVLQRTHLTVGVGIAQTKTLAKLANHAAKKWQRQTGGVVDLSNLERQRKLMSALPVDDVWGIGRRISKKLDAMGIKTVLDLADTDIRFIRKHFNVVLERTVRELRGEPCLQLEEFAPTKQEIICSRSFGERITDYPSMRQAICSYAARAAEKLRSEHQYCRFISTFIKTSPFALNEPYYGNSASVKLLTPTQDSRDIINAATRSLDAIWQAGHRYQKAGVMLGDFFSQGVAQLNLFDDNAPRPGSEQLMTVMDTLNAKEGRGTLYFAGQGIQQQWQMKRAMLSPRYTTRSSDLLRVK

Nc1ncnc2c1ncn2[C@@H]1O[C@H](COP(=O)(O)OP(=O)(O)OP(=O)(O)O)[C@@H](O)[C@H]1O [ATP]
hairpin primer/template extension, 32P-labelled DNA [1]: pol V Mut activated with wild-type RecA* is inactive in the absence of added ATP or ATPγS

B1: wild-type RecA (natural protein, E. coli, UniProt P0A7G6 1-353, looked up)
chain: MAIDENKQKALAAALGQIEKQFGKGSIMRLGEDRSMDVETISTGSLSLDIALGAGGLPMGRIVEIYGPESSGKTTLTLQVIAAAQREGKTCAFIDAEHALDPIYARKLGVDIDNLLCSQPDTGEQALEICDALARSGAVDVIVVDSVAALTPKAEIEGEIGDSHMGLAARMMSQAMRKLAGNLKQSNTLLIFINQIRMKIGVMFGNPETTTGGNALKFYASVRLDIRRIGAVKEGENVVGSETRVKVVKNKIAAPFKQAEFQILYGEGINFYGELVDLGVKEKLIEKAGAWYSYKGEKIGQGKANATAWLKDNPETAKEIEKKVRELLLSNPNSTPDFSVDDSEGVAETNEDF
stoichiometry N [2]: 1 RecA per UmuC per UmuD′2

B2: UmuD′ (natural protein, E. coli, UniProt P0AG11 25-139, looked up)
chain: GFPSPAADYVEQRIDLNQLLIQHPSATYFVKASGDSMIDGGISDGDLLIVDSAITASHGDIVIAAVDGEFTVKKLQLRPTVQLIPMNSAYSPITISSEDTLDVFGVVIHVVKAMR
binding result (UmuC): binds
